Experimental data published in patent publication US20200397913A1, “AXL-SPECIFIC ANTIBODY-DRUG CONJUGATES FOR CANCER TREATMENT” (GENMAB A/S, priority 2015, published 2020).

Columns and labels:
[1] = tested on: SKMEL28 cells; assay: Melanoma cell line viability assay (CellTiter-Glo); assay type: cell-based, human; details: ADC 1×10^−4 to 10 μg/mL, 5 days
[2] = tested on: A875 cells; assay: Melanoma cell line viability assay (CellTiter-Glo); assay type: cell-based, human; details: ADC 1×10^−4 to 10 μg/mL, 5 days
[3] = tested on: M016 cells; assay: Patient-derived low passage melanoma culture viability assay; assay type: cell-based, human; details: ADC 8 days
[4] = tested on: M019R cells; assay: as above; assay type: cell-based, human; details: ADC 8 days
[5] = tested on: A375R cells; assay: Melanoma cell line viability assay (CellTiter-Glo); assay type: cell-based, human; details: ADC 1×10^−4 to 10 μg/mL, 5 days
[6] = tested on: SKMEL28R cells; assay: Melanoma cell line viability assay (CellTiter-Glo); assay type: cell-based, human; details: ADC 1×10^−4 to 10 μg/mL, 5 days
[7] = tested on: SKMEL147 cells; assay: Melanoma cell line viability assay (CellTiter-Glo); assay type: cell-based, human; details: ADC 1×10^−4 to 10 μg/mL, 5 days
[8] = tested on: M082 cells; assay: Patient-derived low passage melanoma culture viability assay; assay type: cell-based, human; details: ADC 8 days
[9] = tested on: PC9-ER cells; assay: In vitro cytotoxicity assay, erlotinib-resistant NSCLC cell line; assay type: cell-based, human
[10] = tested on: A431 tumors; assay: Therapeutic A431 xenograft model; assay type: in vivo, SCID mice; details: 3 mg/kg intraperitoneally, model produces high levels of Gas6
Procedure: (§1) Tumor induction was performed by subcutaneous injection of 5×10^6 A431 or LCLC-103H tumor cells (both obtained from Leibniz-Institut—Deutsche Sammlung von Mikroorganismen and Zellkulturen GmbH (DSMZ)) in 200 μL PBS in the right flank of female SCID mice. Treatment was started 14-21 days after tumor cell inoculation, when the average tumor size was >100-200 mm^3 and distinct tumor growth was observed. Mice received a single injection or a total of 4 biweekly intraperitoneal injections with IgG1-AXL-vcMMAE ADCs or control antibody (unconjugated IgG1-b12), as indicated. Tumor volume was determined at least two times per week. Tumor volumes (mm^3) were calculated from caliper (PLEXX) measurements as: 0.52×(length)×(width)2.

[11] = tested on: MDA-MB231 cells; details: MDA-MB231 (n = 2), 5 days
[12] = tested on: LCLC-103H xenograft tumors; assay: Therapeutic LCLC-103H xenograft model; assay type: in vivo, SCID mice
Procedure: 5×10^6 LCLC-103H (large cell lung carcinoma) tumor cells (obtained from Leibniz-Institut DSMZ-Deutsche Sammlung von Mikroorganismen and Zellkulturen GmbH (DSMZ)) in 200 μL PBS were injected subcutaneously in the right flank of female SCID mice. Starting 14-21 days after tumor cell inoculation, when the average tumor size was >100-200 mm^3 and distinct tumor growth was observed, a single injection with 1 mg/kg (20 μg/mouse) IgG1-AXL-vcMMAE antibodies (as described in Supplementary Example 1) or control (unconjugated IgG1-b12) was given intraperitoneally (100 μL/mouse). Tumor volume was determined at least two times per week. Tumor volumes (mm^3) were calculated from caliper (PLEXX) measurements as: 0.52×(length)×(width)^2.
as §1

[13] = tested on: A431 cells; details: A431 (n = 3), 5 days
[14] = tested on: LCLC-103H cells; details: 5 days
[15] = tested on: PAXF1657 tumors; assay: PAXF1657 pancreas cancer PDX model; assay type: in vivo, NMRI nu/nu mice
Procedure: Human pancreas tumor tissue was subcutaneously implanted in the left flank of 5-7 weeks old female NMRI nu/nu mice. […] At day of randomization (day 0), the 3 ADCs were dosed intravenously (i.v.) at either 4 mg/kg or 2 mg/kg, and the control group received a single dose of IgG1-b12 (4 mg/kg). Tumor volumes (mm^3) were monitored twice weekly and were calculated from caliper (PLEXX) measurements as: 0.52×(length)×(width)^2.

[16] = tested on: MDA-MB-231 tumors; assay: Orthotopic MDA-MB-231-luc D3H2LN breast cancer xenograft model; assay type: in vivo, SCID mice; details: 4 biweekly doses of 3 mg/kg
Procedure: The anti-tumor activity of IgG1-AXL-183-vcMMAE and IgG1-AXL-726-vcMMAE was evaluated in an orthotopic MDA-MB-231 D3H2LN xenograft model.
MDA-MB-231-luc D3H2LN Bioware cells (mammary gland adenocarcinoma; Perkin Elmer, Waltham, Mass.) were implanted in the mammary fat pad of 6-11 week old, female SCID (C.B-17/IcrPrkdc-scid/CRL) mice (Charles-River) under isofluorane anesthesia. Tumors were allowed to grow and mice were randomized when tumors reached a volume of ^˜325 mm^3. […] The treatment groups were: IgG1-b12, IgG1-b12-vcMMAE, IgG1-AXL-183-vcMMAE and IgG1-AXL-726-vcMMAE. The animals received a total of 4 biweekly doses of 3 mg/kg antibody or ADC starting at the day of randomization. Tumor volumes (mm^3) were monitored twice weekly and were calculated from caliper (PLEXX) measurements as: 0.52×(length)×(width)^2.

[17] = tested on: CEXF 773 tumors; assay: Cervix carcinoma PDX model CEXF 773; assay type: in vivo, NMRI nu/nu mice; details: 4 mg/kg i.v. on day 0 and day 7
Procedure: The anti-tumor activity of IgG1-AXL-183-vcMMAE and IgG1-AXL-726-vcMMAE was evaluated in the patient derived cervix carcinoma xenograft CEXF 773 model in NMRI nu/nu mice (Harlan, Netherlands). Experiments were performed by Oncotest (Freiburg, Germany).
Tumor fragments were obtained from xenografts in serial passage in nude mice. After removal from donor mice, tumors were cut into fragments (4-5 mm diameter) and placed in PBS (with 10% penicillin/streptomycin) until subcutaneous implantation. Mice under isofluorane anesthesia received unilateral, subcutaneous tumor implants in the flank. Tumors were allowed to grow until the tumor volume was 50-250 mm^3.
The treatment groups were: IgG1-b12, IgG1-b12-vcMMAE, IgG1-AXL-183-vcMMAE and IgG1-AXL-726-vcMMAE. The antibodies and ADCs were dosed intravenously (i.v.) at 4 mg/kg on the day of randomization (day 0) and on day 7. Tumor volumes (mm^3) were monitored twice weekly and were calculated from caliper (PLEXX) measurements as: 0.52×(length)×(width)^2.

[18] = Example 13: 3 mg/kg intraperitoneally

## CCCS(=O)(=O)Nc1ccc(F)c(C(=O)c2c[nH]c3ncc(Cl)cc23)c1F [PLX4720, N-(3-(5-chloro-1H-pyrrolo[2,3-b]pyridine-3-carbonyl)-2,4-difluorophenyl)propane-1-sulfonamide, reference compound]
[1]
  sensitivity of the cell line to the substance: sensitive
[2]
  sensitivity of the cell line to the substance: sensitive
[3]
  sensitivity of the culture to the substance: resistant
[4]
  sensitivity of the culture to the substance: resistant
[5]
  sensitivity of the cell line to the substance: resistant
[6]
  sensitivity of the cell line to the substance: resistant
[7]
  sensitivity of the cell line to the substance: resistant
[8]
  sensitivity of the culture to the substance: resistant

## C#Cc1cccc(Nc2ncnc3cc(OCCOC)c(OCCOC)cc23)c1 [erlotinib, reference compound]
[9]
  sensitivity of the cell line (cell viability): acquired resistance

B1: IgG1-AXL-148-vcMMAE: IgG1-AXL-148 conjugated at cysteines to vcMMAE (conjugate)
VH: EVQLLESGGGLVQPGGSLRLSCAASGFTFSSYAMTWVRQAPGKGLEWVSAISISGGSTFYADSVKGRFTISRDNSKNTLYLQMNSLRAEDTAVYYCRGYSGYVYDAFDFWGQGTMVTVSS
VL: DIQMTQSPSSLSASVGDRVTITCRASQGISNWLAWYQQKPEKAPKSLIYAASSLQSGVPSRFSGSGSGTDFTLTISSLQPEDFATYYCQQYNSYPLTFGGGTKVEIK
[10]
  anti-tumor activity: induced growth inhibition
[11]
  Cytotoxicity EC50 Mean: 0.012 µg/mL
[12]; Example 9: single injection 1 mg/kg intraperitoneally
  anti-tumor activity: induced tumor regression
[12]; [18]
  anti-tumor activity: induced tumor regression
[13]
  Cytotoxicity EC50 Mean: 0.070 µg/mL
[14]
  Cytotoxicity EC50: 0.012 µg/mL
[15]; 2 mg/kg i.v. at day 0
  anti-tumor activity: significantly reduced the growth
[15]; 4 mg/kg i.v. at day 0
  anti-tumor activity: induced tumor regression
[15]; dose not stated in the sentence (FIG. 10B, 10C)
  anti-tumor activity: dose-dependent antitumor activity

B2: IgG1-AXL-183-vcMMAE: IgG1-AXL-183 (FN1-binder) conjugated to vcMMAE (conjugate)
VH: QVQLQQWGAGLLKPSETLSLTCAVYGGSFSGYYWSWIRQPPGKGLEWIGEINQSGSTNYNPSLKSRVTISVDTSKNQFSLKLSSVTAADTSVYYCASGNWDHFFDYWGQGTLVTVSS
VL: DIQMTQSPSSVSASVGDRVTITCRASQGISSWLAWYQHKPGKAPKLLIYATSSLQSGVTSRFSGSGSGTDFTLTISSLQPEDFATYYCQQAKSFPWTFGQGTKVEIK
[10]
  anti-tumor activity: induced growth inhibition
[12]; [18]
  anti-tumor activity: induced tumor regression
[16]
  anti-tumor activity: induced tumor regression
[17]
  anti-tumor activity: induced tumor regression

B3: IgG1-AXL-726-vcMMAE: IgG1-AXL-726 (FN2-binder) conjugated to vcMMAE (conjugate)
VH: QVQLQQWGAGLLKPSETLSLTCAIDGGSFSGYYWSWIRQPPGKGLEWIGEISHSGRTNYNPSLKSRVTISIDTSKNQFSLKLSSVAAADTAVYYCARFITMIRGAIITHFDYWGQGALVTVSS
VL: DIQMTQSPSSLSASVGDRVTITCRASQGISSWLAWYQQKPEKAPKSLIYAASSLQSGVPSRFSGSGSGTDFTLTISSLQPEDFATYYCQQYHSYPYTFGQGTKLEIK
[10]
  anti-tumor activity: induced growth inhibition
[12]; [18]
  anti-tumor activity: induced tumor regression
[16]
  anti-tumor activity: induced tumor regression
[17]
  anti-tumor activity: induced tumor regression
